Holding throughout (assay): peptide SPOT array, c-Myc-tagged receptor at 1 uM or 100 nM, anti-c-Myc-Cy3
The target of one test is Bcl-xL, Q07817.
In the next test the target is T1, Bfl-1, Q16548.
T1 chain: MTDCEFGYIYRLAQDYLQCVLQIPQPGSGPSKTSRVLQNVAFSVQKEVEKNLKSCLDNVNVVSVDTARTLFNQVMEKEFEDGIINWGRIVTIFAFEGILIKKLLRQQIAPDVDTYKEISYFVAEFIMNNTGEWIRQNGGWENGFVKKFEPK

In the next test the target is T2, Mcl-1, Q07820.
T2 chain: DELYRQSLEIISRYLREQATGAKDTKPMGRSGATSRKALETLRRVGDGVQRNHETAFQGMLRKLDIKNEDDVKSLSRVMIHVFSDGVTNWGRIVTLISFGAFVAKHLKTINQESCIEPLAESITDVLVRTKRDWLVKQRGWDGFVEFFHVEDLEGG

Bcl-xL, Q07817, sequence (Q07817 1-209): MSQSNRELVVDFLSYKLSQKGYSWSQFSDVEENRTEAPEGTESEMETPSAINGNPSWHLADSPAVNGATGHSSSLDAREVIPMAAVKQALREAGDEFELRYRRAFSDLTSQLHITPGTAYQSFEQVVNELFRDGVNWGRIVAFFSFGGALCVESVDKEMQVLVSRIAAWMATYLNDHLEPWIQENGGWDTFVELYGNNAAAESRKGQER

As to TAGLRPGARLLRVCLQTLPSLRPEAA [SIPA1], the SPOT signal as a fraction of Bim BH3's signal on the same receptor and array with Bcl-xL, Q07817 was found to be 0.86; with Bfl-1, Q16548, 0.57; in the test with Mcl-1, Q07820, 0.63.

In the case of LSIIYTLVEIFQNILDTNLADFTAGL [SLC26A4], the SPOT signal as a fraction of Bim BH3's signal on the same receptor and array with Bcl-xL, Q07817 came out at 0.06; with Bfl-1, Q16548 it was 0.03; in the test with Mcl-1, Q07820, 0.05.

For PALLVHWAKCLQKMLRGLNSSYDQQE [RGPD2], the SPOT signal as a fraction of Bim BH3's signal on the same receptor and array was 0.55 with Bcl-xL, Q07817; 0.39 with Bfl-1, Q16548; 0.45 with Mcl-1, Q07820.

Regarding YIVLGLRKTTLQKVGKEVAELVGRVG [NLRX1], the SPOT signal as a fraction of Bim BH3's signal on the same receptor and array in the test with Bcl-xL, Q07817 turned out to be 0.36; in the test with Bfl-1, Q16548, 0.26; with Mcl-1, Q07820, 0.33.

With SEIMHSFAKCDEVMGDGCLNNEHFEE [IPO5], the SPOT signal as a fraction of Bim BH3's signal on the same receptor and array with Bcl-xL, Q07817 was 0.09; with Bfl-1, Q16548, 0.03; with Mcl-1, Q07820 it was 0.04.

On to NNNMDVESRTMATMGDTLASRGLLDA [SEC16A], for which the SPOT signal as a fraction of Bim BH3's signal on the same receptor and array in the test with Bcl-xL, Q07817 was found to be 0.04; with Bfl-1, Q16548, 0.06; with Mcl-1, Q07820, 0.03.

On to PKKKMTLSEIDQWICDNFPYYREAGS [FOXJ3], for which the SPOT signal as a fraction of Bim BH3's signal on the same receptor and array turned out to be 0.08 with Bcl-xL, Q07817; 0.06 in the test with Bfl-1, Q16548; 0.1 with Mcl-1, Q07820.

In the case of MSLFLRVVFSDTMFGDLFEEEYSTVS [USP40], the SPOT signal as a fraction of Bim BH3's signal on the same receptor and array with Bcl-xL, Q07817 turned out to be 0.06; in the test with Bfl-1, Q16548, 0.04; with Mcl-1, Q07820 it was 0.05.

With VLELHPGAQRDHIGCDEVYYLGEGEA [HEXDC], the SPOT signal as a fraction of Bim BH3's signal on the same receptor and array with Bcl-xL, Q07817 was found to be 0.05; with Bfl-1, Q16548, 0.04; with Mcl-1, Q07820 it was 0.04.

For MEMYQPSAVVLQCGLDSLSGDRLGCF [HDAC2], the SPOT signal as a fraction of Bim BH3's signal on the same receptor and array came out at 0.06 with Bcl-xL, Q07817; 0.03 with Bfl-1, Q16548; 0.04 with Mcl-1, Q07820.

As for PAKKMTLSEIYRWILDNFPYYKNAGI [FOXJ2], the SPOT signal as a fraction of Bim BH3's signal on the same receptor and array was determined as 0.82 in the test with Bcl-xL, Q07817; 0.45 with Bfl-1, Q16548; 0.42 with Mcl-1, Q07820.

Turning to LNLLMISVAFLRVIGDQLEKLCDSLL [SLC38A8], the SPOT signal as a fraction of Bim BH3's signal on the same receptor and array stood at 0.05 with Bcl-xL, Q07817; 0.05 in the test with Bfl-1, Q16548; 0.05 with Mcl-1, Q07820.

As for APGEEDLCAAFNVILDNVGKDWRRLA [FADD], the SPOT signal as a fraction of Bim BH3's signal on the same receptor and array with Bcl-xL, Q07817 is 0.06; with Bfl-1, Q16548, 0.04; with Mcl-1, Q07820, 0.06.

Turning to SFLSAHCASHLAWFGDSLTSLSQRLQ [TMEM214], the SPOT signal as a fraction of Bim BH3's signal on the same receptor and array was found to be 0.09 with Bcl-xL, Q07817; 0.09 in the test with Bfl-1, Q16548; 0.06 with Mcl-1, Q07820.

PYLSKHRADRMRRLLDFLNQESFDLA [SMPD2]: the SPOT signal as a fraction of Bim BH3's signal on the same receptor and array came out at 0.67 in the test with Bcl-xL, Q07817; 0.53 in the test with Bfl-1, Q16548; 0.52 with Mcl-1, Q07820.

Turning to DSLLWKLAGLLRESGDVVLSGCSTLS [STK11IP], the SPOT signal as a fraction of Bim BH3's signal on the same receptor and array is 0.06 with Bcl-xL, Q07817; 0.04 with Bfl-1, Q16548; 0.05 with Mcl-1, Q07820.

MPYMEAVIHEIQRFGDVIPMSLARRV [CYP2A6]: the SPOT signal as a fraction of Bim BH3's signal on the same receptor and array with Bcl-xL, Q07817 was 0.15; with Bfl-1, Q16548, 0.1; in the test with Mcl-1, Q07820, 0.1.

Take GYPFNDVCQWFIDRADLIFVVFDPTK [SRL]: the SPOT signal as a fraction of Bim BH3's signal on the same receptor and array with Bcl-xL, Q07817 was 0.07; in the test with Bfl-1, Q16548, 0.05; with Mcl-1, Q07820, 0.06.

Regarding CHGLRELALNYHLLLDELLLALSSEK, the SPOT signal as a fraction of Bim BH3's signal on the same receptor and array amounted to 0.07 with Bcl-xL, Q07817; 0.04 with Bfl-1, Q16548; 0.06 in the test with Mcl-1, Q07820.

VLAPVQLGKWLVLFCDEINLPDMDKY [DYNC1H1]: the SPOT signal as a fraction of Bim BH3's signal on the same receptor and array with Bcl-xL, Q07817 came out at 0.36; with Bfl-1, Q16548 it was 0.08; with Mcl-1, Q07820, 0.05.

As for SQEPLEKAQLLALVGDQLIQSHHYAA [MCF2L2], the SPOT signal as a fraction of Bim BH3's signal on the same receptor and array with Bcl-xL, Q07817 turned out to be 0.06; with Bfl-1, Q16548 it was 0.04; with Mcl-1, Q07820, 0.04.

As for VHKHSRLAEVLQLGSDILPQYKQEAP [KCNH1], the SPOT signal as a fraction of Bim BH3's signal on the same receptor and array in the test with Bcl-xL, Q07817 is 0.17; with Bfl-1, Q16548, 0.09; in the test with Mcl-1, Q07820, 0.21.

For ISSYMVLAPVDGYLGDRYNRKYLMCG [SPNS1], the SPOT signal as a fraction of Bim BH3's signal on the same receptor and array is 1.03 with Bcl-xL, Q07817; 0.68 in the test with Bfl-1, Q16548; 0.69 in the test with Mcl-1, Q07820.

In the case of SKEVAILCSFDLGLGDSCFNTQLLSI [MFSD11], the SPOT signal as a fraction of Bim BH3's signal on the same receptor and array in the test with Bcl-xL, Q07817 turned out to be 0.08; with Bfl-1, Q16548, 0.03; with Mcl-1, Q07820, 0.04.

For SWFIQSLCAMDKQYADKLEFMHILTR [CASP3], the SPOT signal as a fraction of Bim BH3's signal on the same receptor and array turned out to be 0.08 with Bcl-xL, Q07817; 0.05 with Bfl-1, Q16548; 0.06 with Mcl-1, Q07820.

As to CHGLRELALNYHLLSDELLLALSSEK, the SPOT signal as a fraction of Bim BH3's signal on the same receptor and array in the test with Bcl-xL, Q07817 was found to be 0.07; with Bfl-1, Q16548, 0.04; in the test with Mcl-1, Q07820 it was 0.06.

Take LWAAQRYGRELRRMLDEFVDSFKKGL [BAD]: the SPOT signal as a fraction of Bim BH3's signal on the same receptor and array with Bcl-xL, Q07817 stood at 0.49; with Bfl-1, Q16548, 0.42; with Mcl-1, Q07820, 0.41.

Regarding LLDFFMVSILFSKLGDLLHKLQFVLT [PCNXL2], the SPOT signal as a fraction of Bim BH3's signal on the same receptor and array was 0.11 with Bcl-xL, Q07817; 0.06 with Bfl-1, Q16548; 0.09 with Mcl-1, Q07820.

(Values after publication PMC4072508, “Genome-Wide Prediction and Validation of Peptides That Bind Human Prosurvival Bcl-2 Proteins” (PLoS Computational Biology, 2014).)
